Common to all, as to assay: ELISA, plate coated with His-tagged antigen
(In an ELISA, binding on a coated surface is turned into a signal by an enzyme label.)

The target of one assay is T1, Human VEGFA (human, UniProt P15692 207-395).
T1 construct: also called VEGF antigen; not shown: His tag
T1 sequence: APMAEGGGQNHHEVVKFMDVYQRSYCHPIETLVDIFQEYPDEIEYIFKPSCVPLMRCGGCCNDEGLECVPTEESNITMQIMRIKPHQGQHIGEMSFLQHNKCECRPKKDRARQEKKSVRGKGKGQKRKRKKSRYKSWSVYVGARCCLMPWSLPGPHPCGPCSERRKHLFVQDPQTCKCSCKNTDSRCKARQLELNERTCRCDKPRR

The target in the next assay is T2, Human PD-1 (human, UniProt Q15116 25-170).
T2 construct: also called PD-1 antigen; not shown: His tag

For a further assay, the target named is T3, Human TGF-β1 (human, UniProt P01137 279-390).
T3 construct: also called TGF-01; TGF-β1 antigen; not shown: His tag

The target in another assay is T4, Human TIGIT (human, UniProt Q495A1 22-141).
T4 construct: also called TIGIT antigen; not shown: His tag
T4 sequence: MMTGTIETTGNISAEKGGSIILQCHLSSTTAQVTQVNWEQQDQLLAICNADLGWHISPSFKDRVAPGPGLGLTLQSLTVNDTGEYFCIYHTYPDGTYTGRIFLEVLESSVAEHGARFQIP

T2 sequence (Q15116 25-170): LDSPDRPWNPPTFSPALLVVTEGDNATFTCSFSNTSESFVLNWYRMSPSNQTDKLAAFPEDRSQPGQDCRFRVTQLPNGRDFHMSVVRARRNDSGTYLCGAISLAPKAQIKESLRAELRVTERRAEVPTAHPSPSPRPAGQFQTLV
T3 sequence (P01137 279-390 limits assumed): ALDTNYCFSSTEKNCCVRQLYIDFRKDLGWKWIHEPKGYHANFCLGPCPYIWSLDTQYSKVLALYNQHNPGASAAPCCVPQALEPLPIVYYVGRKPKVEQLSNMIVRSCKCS
Description for Human PD-1: (§1) 2) addition of antibody: according to the experimental design, operation was performed at room temperature, and the antibody was diluted in gradient with 1% BSA in PBS. […] The diluted antibody was added into wells of microtiter plate at 200 μl/well, incubated at room temperature for 2h, and then the supernatant was discarded;
Description for Human TGF-β1: as §1
Description for Human TIGIT: as §1
Description for Human VEGFA: as §1

B1: Y206-A2 (bispecific antibody, human IgG1, kappa)
light: not shown
heavy: EVQLVESGGGLVQPGGSLRLSCAASGFTISDYWIHWVRQAPGKGLEWVAGITPAGGYTYYADSVKGRFTISADTSKNTAYLQMNSLRAEDTAVYYCARFVFFLPYAMDYWGQGTLVTVSSASTKGPSVFPLAPSSKSTSGGTAALGCLVKDYFPEPVTVSWNSGALTSGVHTFPAVLQSSGLYSLSSVVTVPSSSLGTQTYICNVNHKPSNTKVDKKVEPKSCDKTHTCPPCPAPPVAGPSVFLFPPKPKDTLMISRTPEVTCVVVDVSHEAPEVQFNWYVDGVEVHNAKTKPREEQFNSTFRVVSVLTVVHQDWLNGKEYKCKVSNKGLPAPIEKTISKTKGQPREPQVYTLPPSRDELTKNQVSLTCLVKGFYPSDIAVEWESNGQPENNYKTTPPVLDSDGSFFLYSKLTVDKSRWQQGNVFSCSVMHEALHNHYTQKSLSLSPGAGGGGSGGGGSGGGGSGQVQLVESGGGVVQPGRSLRLDCKASGITFSNSGMHWVRQAPGKGLEWVAVIWYDGSKRYYADSVKGRFTISRDNSKNTLFLQMNSLRAEDTAVYYCATNDDYWGQGTLVTVSSGGGGSGGGGSGGGGSEIVLTQSPATLSLSPGERATLSCRASQSVSSYLAWYQQKPGQAPRLLIYDASNRATGIPARFSGSGSGTDFTLTISSLEPEDFAVYYCQQSSNWPRTFGQGTKVEIK
notes: structure 2 IgG(H)-ScFv, A series; IgG G631 (anti-VEGF), scFv 5C4 (anti-PD-1)
Regarding B1, the figures for the EC50 with Human VEGFA and with Human PD-1 were 0.063 nM and 0.45 nM, respectively.

B2: 3G12mAb (antibody, human IgG1, kappa, V domains shown)
VH: QVQLVQSGAEVKKPGSSVKVSCKASGYTFSSNVISWVRQAPGQGLEWMGGVIPIVDIANYAQRFKGRVTITADESTSTTYMELSSLRSEDTAVYYCASTLGLVLDAMDYWGQGTLVTVSS
VL: ETVLTQSPGTLSLSPGERATLSCRASQSLGSSYLAWYQQKPGQAPRLLIYGASSRAPGIPDRFSGSGSGTDFTLTISRLEPEDFAVYYCQQYADSPITFGQGTRLEIKR
notes: anti-TGF-β monoclonal antibody, human IgG1 constant domains, kappa
B2 gave an EC50 in the assay with Human TGF-β1 of 2.6 pM.

B3: 10A7mAb (antibody, human IgG1, kappa, V domains shown)
VH: EVQLVESGGGLTQPGKSLKLSCEASGFTFSSFTMHWVRQSPGKGLEWVAFIRSGSGIVFYADAVRGRFTISRDNAKNLLFLQMNDLKSEDTAMYYCARRPLGHNTFDSWGQGTLVTVSS
VL: DIVMTQSPSSLAVSPGEKVTMTCKSSQSLYYSGVKENLLAWYQQKPGQSPKLLIYYASIRFTGVPDRFTGSGSGTDYTLTITSVQAEDMGQYFCQQGINNPLTFGDGTKLEIKR
notes: anti-TIGIT monoclonal antibody, human IgG1 constant domains, kappa
The molecule B3 registered an EC50 with Human TIGIT of 0.0831 nM. That is a picomolar value.

B4: Y206-B2 (bispecific antibody, human IgG1, kappa)
light: not shown
heavy: EVQLVESGGGLVQPGGSLRLSCAASGFTISDYWIHWVRQAPGKGLEWVAGITPAGGYTYYADSVKGRFTISADTSKNTAYLQMNSLRAEDTAVYYCARFVFFLPYAMDYWGQGTLVTVSSASTKGPSVFPLAPSSKSTSGGTAALGCLVKDYFPEPVTVSWNSGALTSGVHTFPAVLQSSGLYSLSSVVTVPSSSLGTQTYICNVNHKPSNTKVDKKVEPKSCDKTHTCPPCPAPPVAGPSVFLFPPKPKDTLMISRTPEVTCVVVDVSHEAPEVQFNWYVDGVEVHNAKTKPREEQFNSTFRVVSVLTVVHQDWLNGKEYKCKVSNKGLPAPIEKTISKTKGQPREPQVYTLPPSRDELTKNQVSLTCLVKGFYPSDIAVEWESNGQPENNYKTTPPVLDSDGSFFLYSKLTVDKSRWQQGNVFSCSVMHEALHNHYTQKSLSLSPGAGGGGSGGGGSGGGGSGEIVLTQSPATLSLSPGERATLSCRASQSVSSYLAWYQQKPGQAPRLLIYDASNRATGIPARFSGSGSGTDFTLTISSLEPEDFAVYYCQQSSNWPRTFGQGTKVEIKGGGGSGGGGSGGGGSQVQLVESGGGVVQPGRSLRLDCKASGITFSNSGMHWVRQAPGKGLEWVAVIWYDGSKRYYADSVKGRFTISRDNSKNTLFLQMNSLRAEDTAVYYCATNDDYWGQGTLVTVSS
notes: structure 2 IgG(H)-ScFv, B series; IgG G631 (anti-VEGF), scFv 5C4 (anti-PD-1)
For B4, the EC50 in the assay with Human VEGFA was 0.0596 nM; with Human PD-1, 0.312 nM.

A word on the EC50: it is the midpoint of the concentration-response curve. Read a low EC50 as higher potency in that assay.
